In publication PMC5500548, “Facile Control over the Supramolecular Ordering of Self-assembled Peptide Scaffolds by Simultaneous Assembly with a Polysacharride” (Scientific Reports, 2017):
No end group written: not given here. *: point of attachment. Fmoc = O=C(OCC1c2ccccc2-c2ccccc21)*

Molecular target: the molecule itself
Assay: transmission electron microscopy + atomic force microscopy; hydrogel of 10 mg/mL Fmoc-FRGDF formed by pH switch to pH 7.4, PBS; dried, negatively stained (TEM) or on HOPG (AFM)

B1: Fmoc-FRGDF (peptide)
peptide: Fmoc-FRGDF
notes: the Fmoc group is kept on the N-terminus; Low molecular weight gelator; also called Fluorenylmethoxycarbonyl (Fmoc) pentapeptide; SAP; source: synthetic peptide (solid phase Fmoc peptide synthesis)
B1: binds.
